The target of test [1] is human-CD45RO-ECD-His (human) (UniProt P08575). The test is described as follows: ELISA, human-CD45RO-ECD-His-coated plates.
Test [2] has the same target. The test is described as follows: SPR, captured human-CD45RO-ECD-His, 1:1 binding. For orientation: In SPR one partner is held on a chip, and binding of the other changes the refractive index at the surface.
Test [3] shares this target. Description: SPR, captured human-CD45RO-ECD-His, 1:1 binding; row label printed 'Clone 023' a second time, taken as clone 028 by the order in paragraph 382.

The EC50 is the concentration at which the effect is half-maximal. A higher EC50 goes with a less potent agent. Broadly, the Kd is a measure of binding affinity in units of concentration. Higher therefore signals lower affinity. For orientation: koff means the rate constant with which the complex falls apart. One may read the kon as a measure of how fast the partners come together. Low values mean slower complex formation, high ones faster complex formation.

B1: anti-CD45 antibody clone 027 (antibody, V domains shown)
VH: QVQLQQSAPELARPGASVRMSCKASGYTFTTYTMNWLTQRPGQGLEWIGYINPSSGYTEYNQKFKDKTSLTADTSSSTAYMQLSSLTSEHSAVYYCARASGYSSWFAYWGQGTLVTVSA
VL: NIVMTQTPKFLLVSAGDRVTITCKASQSVNNDVGWYQQKPGQSPKLLIYYASNRYTGVPDRFTGSGYGTDFTFTISTVQAEDLAVYFCQQDYNSPLTFGAGTKLELK
In turn, B1 showed a 50% effective concentration (EC50) in test [1] of 0.0734 nM. In test [2], the Kd is 3.72 nM, the koff was 0.000282 s⁻¹ and the kon was 75800 M⁻¹ s⁻¹.

B2: anti-CD45 antibody clone 031 (antibody, V domains shown)
VH: DVQLVESGGGLVQPGGSRKLSCAASGFTFSSFGMHWVRQAPEKGLEWVAYINSGSTTFYYADTVKGRFTISRDNPKNTLFLQMTSLGSEDTAMYYCARSATATWTMDYWGQGTSVTVSS
VL: NIMMTQSPSSLAVSAGEKVTMSCKSSQSVFVSSNQKNYLAWYQQKPGQSPKLLIYWASTRESAVPDRFTGSGSGTDFTLTIGSVQAEDLAVYYCHQYLSSWTFGGGTKLEIK
Consider B2, for which the EC50 in test [1] was 0.139 nM. Also, in test [2], the Kd is 79.5 nM, the off-rate (koff) worked out at 0.000335 s⁻¹ and the on-rate constant (kon) worked out at 4220 M⁻¹ s⁻¹.

B3: anti-CD45 antibody clone 042 (antibody, V domains shown)
VH: EVQLQQSGAELVKPGASVKLSCTASGFNIKDTFMHWVKLRPEQGLEWIGRIDPANGYTKYDPRFQGKATIIADTSSNTAYLQLSSLTSEDTAVYYCASGEYYALDYWGQGTSVTVSS
VL: DIVLTQSPASLTVSLGQRATISCRASKSVSTSGYSYMHWYQQKPGQPPKLLIYLASNLESGVPARFSGSGSGTDFTLNIHPVEEEDAATYYCQHNRELPYTFGGGTKLEIK
Turning to B3, in test [1], the EC50 was determined as 0.144 nM.

B4: anti-CD45 antibody clone 028 (antibody, V domains shown)
VH: QVQLQQSGAELARPGASVKMSCKASGYTFTFYAILWVKQMPGQGLEWIGFINPSSGYTSYNQKFKDKATLTADKSSSTAYMQLSSLTSEDSAVYYCARDYGLDYWGQGTTLAVSS
VL: DIVMTQAAPSVPVTPGESVSISCRSSKSLLHSNGNTYLYWFLQRPGQSPQLLIYRMSNLASGVPDRFSGSGSGTAFTLGISRVEAGDVGVYYCMQHLEYPFTFGSGTKLEIK
As to B4, the EC50 in test [1] is 0.0319 nM. In addition, in test [3], the Kd was found to be 39.9 nM, the koff worked out at 0.000591 s⁻¹ and the kon turned out to be 14800 M⁻¹ s⁻¹.

Source of the values: patent publication US20250320294A1.
